Experimental data reported in US7550427B2, “Poly-pegylated protease inhibitors” (Dyax Corp., priority 2003, dated 2009).
Where two headings read alike, the source gives them in different places. Where no end group is shown, it is not given here.

How the values were obtained:
[1] = Allometric extrapolation of clearance to humans; assay type: in vivo; details: 70 Kg human
Text: The data were plotted using a double 4-parameter exponential decay.

[2] = Plasma clearance in mice of 125I-labeled protein; details: for Clearance (%) alpha phase: fraction of label cleared through alpha phase; for Clearance (%) beta phase: fraction of label cleared through beta phase; for T1/2 alpha / T1/2 beta: plasma clearance, tail vein injection
Procedure: (§1) The protein to be tested is labeled with iodine (^125I) using the iodogen method (Pierce). The reaction tube is rinsed with reaction buffer (25 mM Tris, 0.4 M NaCl, pH 7.5). The tube is emptied and then replaced with 0.1 ml of reaction buffer and 12 μl of carrier free iodine-126, about 1.6 mCi. After six minutes, the activated iodine is transferred to a tube containing the protein to be tested. After nine minutes, the reaction is terminated with 25 μl of saturated tyrosine solution. The reaction can be purified on a 5 ml D-salt polyacrylamide 6000 column in Tris/NaCl. HSA can be used to minimize sticking to the gel.
(§2) A sufficient number of mice (about 36) are obtained. The weight of each animal is recorded. In the case of mice, the animals are injected in the tail vein with about 5 μg of the protein to be tested. Samples are recovered at each time point per animal, with four animals per time point, at approximately 0, 7, 15, 30, and 90 minutes, 4 hours, 8 hours, 16 hours, and 24 hours post injection. Samples (about 0.5 ml) are collected into anti-coagulant (0.02 ml EDTA). Cells are spun down and separated from plasma/serum. Samples can be analyzed by radiation counting and SEC peptide column on HPLC with inline radiation detection.
(§3) Data can be fit to a bi-exponential (equation 2) or a tri-exponential (equation 3) decay curve describing “fast”, “slow”, and “slowest” phases of in vivo clearance: y=Ae^−αt+Be^−βt Equation 2 y=Ae^−αt+Be^−βt+Ce^−γt Equation 3 Where: • y=Amount of label remaining in plasma at time=t post-administration • A=Total label in “fast” clearance phase • B=Total label in “slow” clearance phase • C=Total label in “slowest” clearance phase • α=“Fast” clearance phase decay constant • β=“Slow” clearance phase decay constant • γ=“Slowest” clearance phase decay constant • t=Time post administration
(§4) The α, β, and γ phase decay constants can be converted to half-lives for their respective phases as: α Phase Half-life=0.69 (1/α) β Phase Half-life=0.69 (1/β) γ Phase Half-life=0.69 (1/γ)
(§5) In the case where the data are fit using the bi-exponential equation, the percentages of the total label cleared from in vivo circulation through the α and β phases are calculated as: % α Phase=[A/(A+B)]×100 % β Phase=[B/(A+B)]×100
(§6) In the case where the data are fit using the tri-exponential equation, the percentages of the total label cleared from in vivo circulation through the α and β phases are calculated as: % α Phase=[A/(A+B+C)]×100 % β Phase=[B/(A+B+C)]×100 % γ Phase=[C/(A+B+C)]×100

[3] = Plasma clearance in rabbit of 125I-labeled protein; details: for Clearance (%) alpha phase: fraction cleared through alpha phase; for Clearance (%) beta phase: fraction cleared through beta phase; for Clearance (%) gamma phase: fraction cleared through gamma phase; for T1/2 alpha / T1/2 beta / T1/2 gamma: plasma clearance, ear vein injection
Procedure: (§7) The following methods can be used to evaluate the pharmacokinetics (PK) of proteins such as poly-PEGylated proteins in animals, e.g., mice and rabbits. The protein to be tested is labeled with iodine (^125I) using the iodogen method (Pierce). The reaction tube is rinsed with reaction buffer (25 mM Tris, 0.4 M NaCl, pH 7.5). The tube is emptied and then replaced with 0.1 ml of reaction buffer and 12 μl of carrier free iodine-126, about 1.6 mCi. After six minutes, the activated iodine is transferred to a tube containing the protein to be tested. After nine minutes, the reaction is terminated with 25 μl of saturated tyrosine solution. The reaction can be purified on a 5 ml D-salt polyacrylamide 6000 column in Tris/NaCl. HSA can be used to minimize sticking to the gel.
(§8) For rabbits, the material is injected into the ear vein. Samples can be collected at 0, 7, 15, 30, 90 minutes, 4, 8, 16, 24, 48, 72, 96, 120, and 144 hours post-injection. Samples can be collected and analyzed as for mice.
as §3, §4, §5, §6

[4] = Solubility upon dilution in Hepes buffer for the PEGylation reaction; assay type: physicochemical; details: stock ~10 mg/ml diluted 1:1 with 0.2M Hepes, pH 7.8-8.5
Procedure: • mPEG-SPA, MW 5,000 Da, NEKTAR Therapeutics, cat. no.: 2M4M0H01 (succinimidyl ester of methoxy-capped polyethylene glycol propionic acid) • DX-88 API, MW 7,054 Da, ˜10 mg/ml in PBS, pH 7.0 • DX-890 API, MW 6,231 Da, ˜10 mg/ml in 10 mM NaAc, pH 3.0 • DX-1000 API, MW 7,167 Da, ˜10 mg/ml in PBS, pH 7.0 • 0.2-0.3M Hepes, pH 7.8-8.5 • 1M Tris, pH8.0 • 1N HCl PEGylation Reaction I: • 1) Calculate the amount of PEG needed for reacting the Kunitz domain polypeptide at approximately 10:1 molar ratio of PEG:reactive group. For example, DX-890 has 5 total reactive groups, so a 50:1 molar ratio of PEG:DX-890 is used. Depending upon the Kunitz domain polypeptide and/or reaction conditions, a ratio of 25:1 to 50:1 is typically used. For example, for PEGylating 10 mg of DX-890 (MW 6,231 Da) at a 50:1 molar ratio of PEG:peptide, 401 mg of PEG (MW 5,000 Da) would be used. • 2) Just prior to reacting the Kunitz domain polypeptide with the PEG, dilute the required volume of Kunitz domain polypeptide stock 1:1 with 0.2M Hepes, pH 7.8-8.5 buffer. The peptide stock is typically ˜10.0 mg/ml. Therefore upon dilution, the concentration of the Kunitz domain polypeptide is ˜5.0 mg/ml in 0.1M Hepes, pH 7.8-8.5 buffer. […] Reaction times can be chosen to minimize precipitation. • 3) Immediately add the 1:1 diluted Kunitz domain polypeptide solution directly to the PEG powder and quickly dissolve the PEG by vortexing. Once completely dissolved, cap the tube, wrap in foil and allow to react while slowly rocking/tumbling for 2.5-3 hours at 2-8° C. to 25° C. • 4) Quench the reaction by adding 1/9th. volume of 1 M Tris, pH 8.0 for 30-60 minutes at 2-8° C. to 25° C. while slowly rocking/tumbling. • 5) Carefully and slowly adjust the pH of the quench reaction mixture to ˜ pH 7 with small additions of 1N HCl while mixing. • 6) The neutralized reaction can be stored at 2-8° C. or frozen at −20° C. to −80° C. until purification. The direct addition of the Kunitz domain polypeptide solution to PEG powder can help simplify the number of steps in the reaction process and reduce hydrolysis prior to reaction.

[5] = Acute and subchronic 4-week studies of aerosolised DX-890 in cynomolgus monkeys; assay type: in vivo
[6] = 14-day daily nebulization in 12 healthy volunteers; assay type: in vivo, human
Procedure: It is possible, for example, to deliver DX-890 to the lung by nebulization. DX-890 activity was detected in broncho-alveolar lavages of volunteer inhaling nebulized DX-890. 12 healthy volunteers received during 14 days a single daily dose of DX-890, by nebulization lasting 5 or 20 minutes, corresponding to estimated inhaled mass of 3.75 or 15 mg respectively. […] No clinical or biological abnormalities were observed.

[7] = Clinical studies in healthy human volunteers, inhalation at 8 increasing doses; assay type: in vivo; details: inhaled mass up to about 72 mg
[8] = target: T1, hNE of sputum from cystic fibrosis children (Homo sapiens, UniProt P08246); details: in vitro, ex vivo and in vivo pharmacological studies (Delacourt et al. 2002); cited from earlier work
T1 construct: hNE of sputum from cystic fibrosis children; from tissue; host or cells: sputum from cystic fibrosis children
T1 sequence (P08246 30-247 limits assumed): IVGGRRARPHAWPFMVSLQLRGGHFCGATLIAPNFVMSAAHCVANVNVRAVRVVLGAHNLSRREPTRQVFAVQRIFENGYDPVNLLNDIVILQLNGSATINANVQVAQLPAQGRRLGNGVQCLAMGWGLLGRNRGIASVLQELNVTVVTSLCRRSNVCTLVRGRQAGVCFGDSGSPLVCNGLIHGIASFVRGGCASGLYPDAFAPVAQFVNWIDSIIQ

[9] = rabbit, in vivo
Procedure: as §7, §8, §3, §4, §5, §6

[10] = mouse, in vivo
Procedure: as §1, §2, §3, §4, §5, §6

[11] = Resistance to oxidative and proteolytic inactivation; assay type: physicochemical
Text: DX-890 is derived from the second Kunitz-type domain of inter-α-inhibitor protein (ITI-D2) and can be produced by fermentation in Pichia pastoris. It includes 56 amino acids, with a predicted MW of 6,237 Daltons.

[12] = allometric extrapolation from mice and rabbits
[13] = allometric extrapolation, restated in days
[14] = 12 healthy volunteers, 14 days single daily dose, nebulization, inhaled mass 3.75 or 15 mg

Substance | Extrapolated long half life clearance phase [1, 12] | Extrapolated long half life clearance phase [1, 13] | Clearance (%) alpha phase [2] | Clearance (%) beta phase [2] | T1/2 alpha [2] | T1/2 beta [2] | Clearance (%) alpha phase [3] | Clearance (%) beta phase [3] | Clearance (%) gamma phase [3] | T1/2 alpha [3] | T1/2 beta [3] | T1/2 gamma [3] | Solubility upon dilution [4] | other results
4 × PEG5-DX-1000: DX-1000 with four attached 5 kDa PEG moieties (4×5 kDa PEG/peptide) (MHSFCAFKAETGPCRARFDRWFFNIFTRQCEEFIYGGCEGNQNRFESLEECKKMCTRD; not fully specified; cysteine pairing not given here; also: four attached 5 kDa PEG moieties (4×5 kDa PEG/peptide)) | 210 h | about 9 days | 38% | 62% | 0.3 h | 12.5 h | 34% | 32% | 34% | 1.9 min | 3 h | 69.3 h | – | –
DX-88: a kallikrein inhibitor, a Kunitz domain with three available lysines (SEQ ID NO:24) (EAMHSFCAFKADDGPCRAAHPRWFFNIFTRQCEEFIYGGCEGNQNRFESLEECKKMCTRD; Synthetically generated peptide) | – | – | – | – | – | – | – | – | – | – | – | – | relatively stable in terms of solubility upon dilution | –
DX-890: 56-amino-acid Kunitz domain (SEQ ID NO:23) derived from ITI-D2; inhibitor of human neutrophil elastase (EACNLPIVRGPCIAFFPRWAFDAVKGKCVLFPYGGCQGNGNKFYSEKECREYCGVP; Synthetically generated peptide) | 8.4 h | – | 79% | 21% | – | – | 83% | 17% | – | – | – | – | may precipitate over time | Clinical or biological toxicity, histopathological lesions [5]: no signs of clinical or biological toxicity; Adverse events [6, 14]: no significant adverse event; Tolerability [6, 14]: excellent; DX-890 activity in broncho-alveolar lavages ([6]; volunteer inhaling nebulized DX-890): detected; Safety of administration by inhalation [7]: safe; Effect against lesions induced by hNE of sputum from cystic fibrosis children [8]: protective effect; T1/2 alpha [9]: 1.7 min; T1/2 beta [9]: 3.4 h; T1/2 alpha [10]: 1.3 min; T1/2 beta [10]: 0.987 h; Resistance to oxidative and proteolytic inactivation [11]: resistant to oxidative and proteolytic inactivation
5 × PEG5-DX-890: modified DX-890 with five attached 5 kDa PEG moieties (mPEG-SPA) (EACNLPIVRGPCIAFFPRWAFDAVKGKCVLFPYGGCQGNGNKFYSEKECREYCGVP; not fully specified; cysteine pairing not given here; also: five attached 5 kDa PEG moieties (mPEG-SPA)) | 330 h | about 14 days | 33% | 67% | 1.1 h | 20.2 h | 28% | 34% | 38% | 2.8 min | 4.5 h | 97.6 h | – | –
DX-1000: a human plasmin inhibitor, a Kunitz domain with three available lysines (SEQ ID NO:25) (EAMHSFCAFKAETGPCRARFDRWFFNIFTRQCEEFIYGGCEGNQNRFESLEECKKMCTRD; Synthetically generated peptide) | 1.7 h | – | 87% | 13% | 0.025 h | 0.448 h | 85% | 15% | – | 0.9 min | 1 h | – | relatively stable in terms of solubility upon dilution | –
